Target: T1, full-length pro-IL-1H4
T1 chain: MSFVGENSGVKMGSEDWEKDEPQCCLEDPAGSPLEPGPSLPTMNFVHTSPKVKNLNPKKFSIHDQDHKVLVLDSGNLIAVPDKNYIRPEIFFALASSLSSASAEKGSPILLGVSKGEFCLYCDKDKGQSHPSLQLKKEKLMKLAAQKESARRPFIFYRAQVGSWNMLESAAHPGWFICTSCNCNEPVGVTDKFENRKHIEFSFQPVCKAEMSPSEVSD

B1: caspase 4 (protein)
chain: QISPNKKAHPNMEAGPPESGESTDALKLCPHEEFLRLCKERAEEIYPIKERNNRTRLALIICNTEFDHLPPRNGADFDITGMKELLEGLDYSVDVEENLTARDMESALRAFATRPEHKSSDSTFLVLMSHGILEGICGTVHDEKKPDVLLYDTIFQIFNNRNCLSLKDKPKVIIVQACRGANRGELWVRDSPASLEVASSQSSENLEEDAVYKTHVEKDFIAFCSSTPHNVSWRDSTMGSIFITQLITCFQKYSWCCHLEEVFRKVQQSFETPRAKAQMPTIERLSMTRYFYLFPGN
In the case of B1, the “cleavage of pro-IL-1H4” value is reported as “caspase 4 also cleaved pro-IL-1H4, although not as efficiently as caspase 1”.

B2: caspase 1 (protein)
chain: NPAMPTSSGSEGNVKLCSLEEAQRIWKQKSAEIYPIMDKSSRTRLALIICNEEFDSIPRRTGAEVDITGMTMLLQNLGYSVDVKKNLTASDMTTELEAFAHRPEHKTSDSTFLVFMSHGIREGICGKKHSEQVPDILQLNAIFNMLNTKNCPSLKDKPKVIIIQACRGDSPGVVWFKDSVGVSGNLSLPTTEEFEDDAIKKAHIEKDFIAFCSSTPDNVSWRHPTMGSVFIGRLIEHMQEYACSCDVEEIFRKVRFSFEQPDGRAQMPTTERVTLTRCFYLFPGH
In the case of B2, the “cleavage of pro-IL-1H4 to mature IL-1H4 (SDS polyacrylamide gel)” value is reported as “Caspase 1 at a ratio of 1:50 to 1:5 (caspase:IL-1H4, weight/weight) completely cleaved pro-IL-1H4 to release the mature IL-1H4”.
